{"source": "patent US20230348603A1", "about": "(VERSEAU THERAPEUTICS, published 2023)", "binders": {"B1": {"name": "12A12 mouse/human chimeric IgG4 (S228P) kappa (antibody, V domains shown)", "VH": "QVQMKQSGAELAKPGASVKMSCKASGYTFTNYWMHWVKQRPGQGLEWIGYINPSTGYTDYNQNFKDRATLTADKSSSTAYMQLSSLTSEDSAVYYCIRGSDYYGRDYWGQGTTLTVSS", "VL": "DIQMTQTTSSLSASLGDRVTISCRASQDISNYLNWYQQKPDGTLKLLIYYTSRLHSGVPSRFSGSGSGTDYSLTISNLEQEDIATYFCRQGNTLPWTFGGGTKLEIKR"}}, "key": {"Human VSIG4-L-Fc [1]": {"target": "T1, Human VSIG4-L-Fc (human)", "T1 construct": "also called hVSIG4-L-Fc; hVSIG4-L", "assay": "BLI cross-blocking on hVSIG4-L-Fc, competitor 14C05 first"}, "Human VSIG4-L-Fc [2]": {"target": "T1, Human VSIG4-L-Fc", "assay": "BLI binning on hVSIG4-L-Fc, competitor 12A12 first;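 further: normalized to binding of second antibody without first competitor antibody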"}, "Human VSIG4-L-Fc [3]": {"target": "T1, Human VSIG4-L-Fc", "assay": "BLI binning on hVSIG4-L-Fc, competitor 16E10 first;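 further: normalized to binding of second antibody without first competitor antibody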"}, "Human VSIG4-L-Fc [4]": {"target": "T1, Human VSIG4-L-Fc", "assay": "BLI cross-blocking on hVSIG4-L-Fc, competitor 16G02 first"}, "Human VSIG4-L-His [5]": {"target": "T2, Human VSIG4-L-His (human, UniProt Q9Y279 20-283)", "T2 construct": "long isoform ECD with His tag; also called hVSIG4-L", "T2 sequence": "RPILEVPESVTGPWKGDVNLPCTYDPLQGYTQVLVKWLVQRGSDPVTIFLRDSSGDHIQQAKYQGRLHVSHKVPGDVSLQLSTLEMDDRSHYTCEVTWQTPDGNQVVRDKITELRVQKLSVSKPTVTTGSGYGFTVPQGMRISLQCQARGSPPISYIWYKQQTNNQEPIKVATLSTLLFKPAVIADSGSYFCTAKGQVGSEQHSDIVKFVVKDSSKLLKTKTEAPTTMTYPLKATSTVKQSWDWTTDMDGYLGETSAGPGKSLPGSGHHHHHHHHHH", "assay": "BLI (Octet), IgG on AHC sensor, antigen 100 nM"}, "Human VSIG4-S-His": {"target": "T3, Human VSIG4-S-His (human, UniProt Q9Y279 20-283)", "T3 construct": "short isoform ECD with His tag; also called hVSIG4-S; VISG4-S-His", "T3 sequence": "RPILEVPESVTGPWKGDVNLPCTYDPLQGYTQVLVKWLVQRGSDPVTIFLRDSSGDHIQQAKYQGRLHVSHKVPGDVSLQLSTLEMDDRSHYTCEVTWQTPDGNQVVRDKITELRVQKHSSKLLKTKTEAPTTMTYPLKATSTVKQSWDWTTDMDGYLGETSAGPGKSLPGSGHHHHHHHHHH", "assay": "BLI (Octet), IgG on AHC sensor, antigen 100 nM"}, "[6]": {"target": "T4, Cynomolgus Monkey VSIG4-L-His (cynomolgus monkey)", "T4 construct": "ECD with His tag; also called cyVSIG4-L; cyno VSIG4-L-His", "T4 chain": "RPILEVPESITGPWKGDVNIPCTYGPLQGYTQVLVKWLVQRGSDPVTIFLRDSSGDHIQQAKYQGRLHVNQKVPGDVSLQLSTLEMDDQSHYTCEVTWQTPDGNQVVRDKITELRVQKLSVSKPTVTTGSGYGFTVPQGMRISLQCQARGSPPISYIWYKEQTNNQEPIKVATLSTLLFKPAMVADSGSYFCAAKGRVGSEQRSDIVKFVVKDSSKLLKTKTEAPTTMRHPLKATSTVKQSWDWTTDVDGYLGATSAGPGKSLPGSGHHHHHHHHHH", "assay": "BLI (Octet), IgG on AHC sensor, antigen 100 nM"}, "[7]": {"target": "T5, Human VSIG4-L-CHO (human VSIG4 long isoform on CHO-K1 cells) (human, UniProt Q9Y279 20-399)", "T5 construct": "also called hVSIG4-L (flow cytometry)", "T5 sequence": "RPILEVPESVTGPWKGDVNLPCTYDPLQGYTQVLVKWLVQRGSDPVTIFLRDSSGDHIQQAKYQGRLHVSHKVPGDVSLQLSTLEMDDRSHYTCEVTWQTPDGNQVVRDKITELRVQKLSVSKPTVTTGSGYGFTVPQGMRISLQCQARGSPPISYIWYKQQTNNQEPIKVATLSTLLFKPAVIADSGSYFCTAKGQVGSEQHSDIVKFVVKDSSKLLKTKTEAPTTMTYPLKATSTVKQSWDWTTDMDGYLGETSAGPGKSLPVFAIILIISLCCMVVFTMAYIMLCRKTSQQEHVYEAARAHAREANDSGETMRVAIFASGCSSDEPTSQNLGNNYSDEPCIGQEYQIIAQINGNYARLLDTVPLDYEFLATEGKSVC", "assay": "flow cytometry (FJB), 200 nM mAb, huVSIG4-L CHO-K1 over parental CHO-K1"}, "Human VSIG4-L-Fc [8]": {"target": "T1, Human VSIG4-L-Fc", "assay": "BLI binning on hVSIG4-L-Fc, competitor 15C04 first;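 further: normalized to binding of second antibody without first competitor antibody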"}, "Human VSIG4-L-Fc [9]": {"target": "T1, Human VSIG4-L-Fc", "assay": "BLI binning on hVSIG4-L-Fc, competitor 16E03 first;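 further: normalized to binding of second antibody without first competitor antibody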"}, "Human VSIG4-L-His [10]": {"target": "T2, Human VSIG4-L-His", "assay": "BLI, IgG on AHC sensor, antigen 100 nM"}, "[11]": {"target": "T4, Cynomolgus Monkey VSIG4-L-His", "assay": "BLI, IgG on AHC sensor, antigen 100 nM"}, "Human VSIG4-L-Fc [12]": {"target": "T1, Human VSIG4-L-Fc", "assay": "BLI binning on hVSIG4-L-Fc, competitor 12A08 first;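 further: normalized to binding of second antibody without first competitor antibody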"}, "Human VSIG4-L-Fc [13]": {"target": "T1, Human VSIG4-L-Fc", "assay": "BLI binning on hVSIG4-L-Fc, competitor 15A06 first;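 further: normalized to binding of second antibody without first competitor antibody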"}, "Human VSIG4-L-Fc [14]": {"target": "T1, Human VSIG4-L-Fc", "assay": "BLI binning on hVSIG4-L-Fc, competitor 15C03 first;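 further: normalized to binding of second antibody without first competitor antibody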"}, "[15]": {"target": "T5, Human VSIG4-L-CHO (human VSIG4 long …)", "assay": "flow cytometry, CHO-K1 cells expressing hVSIG4-L"}, "Human VSIG4-L-Fc [16]": {"target": "T1, Human VSIG4-L-Fc", "assay": "ligand blocking of iC3b, IgG"}, "Human VSIG4-L-Fc [17]": {"target": "T1, Human VSIG4-L-Fc", "assay": "ligand competition ELISA (FJB), blocked ligand iC3b"}, "Human VSIG4-L-Fc [18]": {"target": "T1, Human VSIG4-L-Fc", "assay": "ligand blocking of C3b, IgG"}, "Human VSIG4-L-Fc [19]": {"target": "T1, Human VSIG4-L-Fc", "assay": "BLI binning on hVSIG4-L-Fc, competitor 14D12 first;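 further: normalized to binding of second antibody without first competitor antibody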"}, "[20]": {"target": "T5, Human VSIG4-L-CHO (human VSIG4 long …)", "assay": "flow cytometry (FJB), 200 nM mAb, huVSIG4-L CHO-K1 cells"}, "Human VSIG4-L-Fc [21]": {"target": "T1, Human VSIG4-L-Fc", "assay": "BLI binning on hVSIG4-L-Fc, competitor 14C05 first;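 further: normalized to binding of second antibody without first competitor antibody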"}}}
{"binder": "B1", "values": [{"measurement": "binding signal (nm shift)", "setting": "Human VSIG4-L-Fc [1]", "result": 0.72, "unit": "nm"}, {"measurement": "normalized maximum binding nm shift", "setting": "Human VSIG4-L-Fc [2]", "result": 0.13, "unit": "normalized"}, {"measurement": "normalized maximum binding nm shift", "setting": "Human VSIG4-L-Fc [3]", "result": 0.62, "unit": "normalized"}, {"measurement": "binding signal (nm shift)", "setting": "Human VSIG4-L-Fc [4]", "result": 0.16, "unit": "nm"}, {"measurement": "Kd", "setting": "Human VSIG4-L-His [5]", "result": 19.1, "unit": "nM"}, {"measurement": "Kd", "setting": "Human VSIG4-S-His", "result": 15.8, "unit": "nM"}, {"measurement": "Kd", "setting": "[6]", "result": 19.5, "unit": "nM"}, {"measurement": "Binding (200 nM) Fold-Over-Parental", "setting": "[7]", "result": 291, "unit": "fold"}, {"measurement": "normalized maximum binding nm shift", "setting": "Human VSIG4-L-Fc [8]", "result": 0.76, "unit": "normalized"}, {"measurement": "normalized maximum binding nm shift", "setting": "Human VSIG4-L-Fc [9]", "result": 0.64, "unit": "normalized"}, {"measurement": "KD relative to parental chimera", "setting": "Human VSIG4-L-His [10]", "result": 1, "unit": "fold"}, {"measurement": "KD relative to parental chimera", "setting": "[11]", "result": 1, "unit": "fold"}, {"measurement": "normalized maximum binding nm shift", "setting": "Human VSIG4-L-Fc [12]", "result": 0.86, "unit": "normalized"}, {"measurement": "normalized maximum binding nm shift", "setting": "Human VSIG4-L-Fc [13]", "result": 0.77, "unit": "normalized"}, {"measurement": "normalized maximum binding nm shift", "setting": "Human VSIG4-L-Fc [14]", "result": 0.65, "unit": "normalized"}, {"measurement": "EC50", "setting": "[15]", "result": 4.4, "unit": "nM"}, {"measurement": "Percent Blocking iC3b", "setting": "Human VSIG4-L-Fc [16]", "result": 98, "unit": "%"}, {"measurement": "IC50", "setting": "Human VSIG4-L-Fc [17]", "result": 0.5, "unit": "nM"}, {"measurement": "Percent Blocking C3b", "setting": "Human VSIG4-L-Fc [18]", "result": 96, "unit": "%"}, {"measurement": "normalized maximum binding nm shift", "setting": "Human VSIG4-L-Fc [19]", "result": 0.7, "unit": "normalized"}, {"measurement": "Binding (200 nM) MFI", "setting": "[20]", "result": 106000, "unit": "MFI"}, {"measurement": "normalized maximum binding nm shift", "setting": "Human VSIG4-L-Fc [21]", "result": 0.72, "unit": "normalized"}]}
